Source: patent US20200362031A1 (BIO TECHNE, published 2020)
Blank lines part the entries; values can stand above or below the binder they belong to.

Assays:
[1] = molecular target: VISTA(1-195)-COMP-His (human); assay: SPR (Biacore): VISTA-COMP captured by anti-poly-His antibody on a CM5 chip, VSIG3-Fc analyte 0.2 to 500 nM, 1:1 fit
Protocol: (§1) FIG. 9A-FIG. 9D show schematics and quantification of the kinetics and affinity of the VISTA-VSIG3 interaction by surface plasmon resonance (Biacore) using monomeric VISTA and multimeric VISTA-COMP. FIG. 9A and FIG. 9C show schematics of the Biacore experiment, where VISTA (FIG. 9A) or VISTA-COMP (FIG. 9C) is captured on the surface of a CM5 chip (GE Healthcare) using an anti-poly His antibody. The analyte, VSIG3-Fc, is flowed over the captured VISTA at concentration ranging between 0.2 nM and 20 μM. FIG. 9B and FIG. 9D show resulting sensorgrams and kinetic fits using a 1:1 model for the monomeric VISTA-VSIG3-Fc interaction (FIG. 9B) and the multimeric VISTA-COMP-VSIG3-Fc interaction (FIG. 9D). For captured monomeric VISTA, the VSIG3-Fc analyte was tested in the range of 0.247 μM to 20 μM. For captured multimeric VISTA-COMP, the VSIG3-Fc analyte was tested in the range of 0.2 nM to 500 nM.
(§2) VISTA or VISTA-COMP (each prepared as described in Example 4) was covalently immobilized to the surface of a CM5 chip (GE Healthcare, US) using an anti-poly His antibody. Dilutions of VSIG3 Fc-fusion were then flowed over the surface at concentration ranging between 0.2 nM and 20 μM and the double reference subtracted data fit to a 1:1 Langmuir binding model with Biacore T200 Evaluation Software version 3.1

[2] = molecular target: VISTA(1-195)-COMP-His (human); assay: SPR (Biacore T200); VISTA-COMP captured by anti-poly His antibody on CM5 chip, VSIG3-Fc analyte, 1:1 Langmuir fit
Protocol: as §2

[3] = molecular target: monomeric VISTA (human); assay: SPR (Biacore): monomeric VISTA captured by anti-poly-His antibody on a CM5 chip, VSIG3-Fc analyte 0.247 to 20 µM, 1:1 fit
Protocol: as §1, §2

[4] = molecular target: T1, Recombinant human VISTA Fc Chimera (human); assay: functional ELISA; rhVISTA coated 2 µg/mL, biotinylated rhVSIG3, streptavidin-HRP
T1 construct: also called rhVISTA; VISTA/IgG Fc fusion protein
Protocol: Recombinant human VSIG3 Fc Chimera (“rhVSIG3”—encoded by SEQ ID NO:3; see Table 1) specifically binds to a recombinant human VISTA Fc Chimera (“rhVISTA”—encoded by SEQ ID NO:6; see Table 1) on a functional ELISA binding assay. rhVISTA was coated on the wells of a ELISA microtiter plate at 2 μg/ml in a 100 μL volume. Following blocking of the wells with 1% BSA, varying amounts of rhVSIG3 labeled with biotin was added. Biotin label associated with the plate due to the rhVSIG3-rhVISTA interaction was detected with streptavidin-HRP. […] The non-specific binding is subtracted and in all cases was less than 5% of the total signal.

[5] = molecular target: VISTA(1-195)-COMP-His (human); assay: SPR (Biacore T200); VISTA-COMP against monomeric VISTA, VSIG3-Fc analyte
Protocol: as §2
This increase is largely due to an […].

[6] = molecular target: monomeric VISTA (human); assay: SPR (Biacore T200); monomeric VISTA captured by anti-poly His antibody on CM5 chip, VSIG3-Fc analyte, 1:1 Langmuir fit
Protocol: as §2

[7] = molecular target: T1, Recombinant human VISTA Fc Chimera; assay: AVEXIS screen

Chain of VISTA(1-195)-COMP-His (human) (chain, as listed by the source): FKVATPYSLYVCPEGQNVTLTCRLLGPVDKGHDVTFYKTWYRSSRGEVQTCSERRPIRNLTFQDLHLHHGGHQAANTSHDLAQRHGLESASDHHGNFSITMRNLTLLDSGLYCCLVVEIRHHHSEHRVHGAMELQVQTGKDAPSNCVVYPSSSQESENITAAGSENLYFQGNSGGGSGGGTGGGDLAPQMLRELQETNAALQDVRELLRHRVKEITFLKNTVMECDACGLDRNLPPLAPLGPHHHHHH
Chain of monomeric VISTA (human) (Q9H7M9 33-194): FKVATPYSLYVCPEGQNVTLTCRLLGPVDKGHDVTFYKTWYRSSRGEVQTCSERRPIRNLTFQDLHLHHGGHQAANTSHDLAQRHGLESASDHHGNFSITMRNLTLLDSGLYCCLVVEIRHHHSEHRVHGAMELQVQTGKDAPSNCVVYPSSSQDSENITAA

Kd [1]: 17 nM | Kd [2]: ~17 nM | Kd [3]: 2520 nM | EC50 [4]: ~0.25 µg/mL | fold higher affinity than with monomeric VISTA [5]: ~150 fold | Kd [6]: ~2500 nM
B1: Recombinant human VSIG3 Fc Chimera (Fc fusion)
chain: LEVSESPGSIQVARGQTAVLPCTFTTSAALINLNVIWMVTPLSNANQPEQVILYQGGQMFDGAPRFHGRVGFTGTMPATNVSIFINNTQLSDTGTYQCLVNNLPDIGGRNIGVTGLTVLVPPSAPHCQIQGSQDIGSDVILLCSSEEGIPRPTYLWEKLDNTLKLPPTATQDQVQGTVTIRNISALSSGLYQCVASNAIGTSTCLLDLQVISPQPRNIGLIAGIEGRMDPKSCDKTHTCPPCPAPEAEGAPSVFLFPPKPKDTLMISRTPEVTCVVVDVSHEDPEVKFNWYVDGVEVHNAKTKPREEQYNSTYRVVSVLTVLHQDWLNGKEYKCKVSNKALPAPIEKTISKAKGQPREPQVYTLPPSRDELTKNQVSLTCLVKGFYPSDIAVEWESNGQPENNYKATPPVLDSDGSFFLYSKLTVDKSRWQQGNVFSCSVMHEALHNHYTQKSLSLSPGK
notes: also called rhVSIG3; rhVSIG-3

binding result [7]: no binding
B2: VSIG3(1-245)-COMP-AlkPhos-Flag/His (other)
chain: LEVSESPGSIQVARGQPAVLPCTFTTSAALINLNVIWMVTPLSNANQPEQVILYQGGQMFDGAPRFHGRVGFTGTMPATNVSIFINNTQLSDTGTYQCLVNNLPDIGGRNIGVTGLTVLVPPSAPHCQIQGSQDIGSDVILLCSSEEGIPRPTYLWEKLDNTLKLPPTATQDQVQGTVTIRNISALSSGLYQCVASNAIGTSTCLLDLQVISPQPRNIGLIAGSENLYFQGNSGGGSGGGTGGGDLAPQMLRELQETNAALQDVRELLRHRVKEITFLKNTVMECDACGLDRNLPPLAPLGPIIPVEEENPDFWNREAAEALGAAKKLQPAQTAAKNLIIFLGDGMGVSTVTAARILKGQKKDKLGPEIPLAMDRFPYVALSKTYNVDKHVPDSGATATAYLCGVKGNFQTIGLSAAARFNQCNTTRGNEVISVMNRAKKAGKSVGVVTTTRVQHASPAGTYAHTVNRNWYSDADVPASARQEGCQDIATQLISNMDIDVILGGGRKYMFRMGTPDPEYPDDYSQGGTRLDGKNLVQEWLAKRQGARYVWNRTELMQASLDPSVTHLMGLFEPGDMKYEIHRDSTLDPSLMEMTEAALRLLSRNPRGFFLFVEGGRIDHGHHESRAYRALTETIMFDDAIERAGQLTSEEDTLSLVTADHSHVFSFGGYPLRGSSIFGLAPGKARDRKAYTVLLYGNGPGYVLKDGARPDVTESESGSPEYRQQSAVPLDEETHAGEDVAVFARGPQAHLVHGVQEQTFIAHVMAFAACLEPYTACDLAPPAGTTDDYKDDDDKHHHHHH
notes: also called penta-VSIG3
